According to paper PMC8213154, “Replacement of Arg in the conserved N-terminal RLFDQxFG motif affects physico-chemical properties and chaperone-like activity of human small heat shock protein HspB8 (Hsp22)” (PLoS ONE, 2021):

Key:
[1] = biological target: the molecule itself; assay: SEC-MALS; Superdex 200 Increase 10/30; 20 mM Tris/acetate pH 7.6, 150 mM NaCl, 0.1 mM EDTA, 0.1 mM PMSF, 2 mM DTT; 200–250 μg of HspB8 WT or R29A, or 400 μg of Δ28–32 loaded
[2] = biological target: the molecule itself; assay: SEC-MALS; Superdex 200 Increase 10/30; buffer D (20 mM Tris/acetate pH 7.6, 150 mM NaCl, 0.1 mM EDTA, 0.1 mM PMSF) without any reducing agents; 200–250 μg of oxidized HspB8Cys loaded

B1: HspB8 R29A mutant (natural protein, human, UniProt Q9UJY1 1-196, looked up)
chain: MADGQMPFSCHYPSRLRRDPFRDSPLSSALLDDGFGMDPFPDDLTASWPDWALPRLSSAWPGTLRSGMVPRGPTATARFGVPAEGRTPPPFPGEPWKVCVNVHSFKPEELMVKTKDGYVEVSGKHEEKQQEGGIVSKNFTKKIQLPAEVDPVTVFASLSPEGLLIIEAPQVPPYSTFGESSFNNELPQDSQEVTCT
notes: human HspB8 (Hsp22), Uniprot Q9UJY1, carrying the R29A mutation; calculated Mw of monomer 21.5 kDa; No tag is named
binding result [1]: binds

B2: HspB8 Δ28–32 mutant (natural protein, human, UniProt Q9UJY1 1-196, looked up)
chain: MADGQMPFSCHYPSRLRRDPFRDSPLSDGFGMDPFPDDLTASWPDWALPRLSSAWPGTLRSGMVPRGPTATARFGVPAEGRTPPPFPGEPWKVCVNVHSFKPEELMVKTKDGYVEVSGKHEEKQQEGGIVSKNFTKKIQLPAEVDPVTVFASLSPEGLLIIEAPQVPPYSTFGESSFNNELPQDSQEVTCT
notes: human HspB8 (Hsp22), Uniprot Q9UJY1, with the pentapeptide 28SRLLD32 deleted; calculated Mw of monomer 21.0 kDa; Made by PCR from the HspB8 WT cDNA and ligated into pET23 via NdeI and XhoI; No tag is named; also called Δ mutant; deletion mutant of HspB8
stoichiometry N [1]: 2

B3: oxidized Cys mutant of HspB8 (C10S/C99S/C195S/N138C) (natural protein, human, UniProt Q9UJY1 1-196, looked up)
chain: MADGQMPFSSHYPSRLRRDPFRDSPLSSRLLDDGFGMDPFPDDLTASWPDWALPRLSSAWPGTLRSGMVPRGPTATARFGVPAEGRTPPPFPGEPWKVSVNVHSFKPEELMVKTKDGYVEVSGKHEEKQQEGGIVSKCFTKKIQLPAEVDPVTVFASLSPEGLLIIEAPQVPPYSTFGESSFNNELPQDSQEVTST
modifications: engineered disulfide bridge between the Cys138 residues of two chains (oxidized form)
notes: human HspB8 (Hsp22), Uniprot Q9UJY1, with the C10S/C99S/C195S/N138C amino acid substitutions; calculated Mw of monomer 21.5 kDa; The dimer is covalent (S-S crosslinked) after oxidation; No tag is named; also called HspB8Cys; oxidized HspB8Cys; source: oxidized by overnight dialysis
stoichiometry N [2]: 2
